Measured values: patent publication US20160272683A1 (Novo Nordisk, published 2016)
Numbered stars: 1 amine (or outer) side, 2 acyl side, 3 side chain; on linkers, the order of the positions; unused ones are H or OH. * marks the point of attachment. C20 diacid = O=C(O)CCCCCCCCCCCCCCCCCCC(=O)*; C18 diacid = O=C(O)CCCCCCCCCCCCCCCCC(=O)*; γGlu = O=C(O)[C@H](CCC(=O)[*:2])N[*:1]; AEEA = NCCOCCOCC(=O)O

B1: [N-terminal(C20 diacid-gGlu), -1E, 1A, 23Y, 30S, 31G]mimylin (peptide)
peptide: {C20 diacid-γGlu}-EAASELSTAALGRLSAELHELATYPRTETGSGSP-NH2
SMILES: CC(C)C[C@H](NC(=O)[C@H](C)NC(=O)[C@H](C)NC(=O)[C@@H](NC(=O)[C@H](CO)NC(=O)[C@H](CC(C)C)NC(=O)[C@H](CCC(=O)O)NC(=O)[C@H](CO)NC(=O)[C@H](C)NC(=O)[C@H](C)NC(=O)[C@H](CCC(=O)O)NC(=O)CC[C@H](NC(=O)CCCCCCCCCCCCCCCCCCC(=O)O)C(=O)O)[C@@H](C)O)C(=O)NCC(=O)N[C@@H](CCCNC(=N)N)C(=O)N[C@@H](CC(C)C)C(=O)N[C@@H](CO)C(=O)N[C@@H](C)C(=O)N[C@@H](CCC(=O)O)C(=O)N[C@@H](CC(C)C)C(=O)N[C@@H](Cc1c[nH]cn1)C(=O)N[C@@H](CCC(=O)O)C(=O)N[C@@H](CC(C)C)C(=O)N[C@@H](C)C(=O)N[C@H](C(=O)N[C@@H](Cc1ccc(O)cc1)C(=O)N1CCC[C@H]1C(=O)N[C@@H](CCCNC(=N)N)C(=O)N[C@H](C(=O)N[C@@H](CCC(=O)O)C(=O)N[C@H](C(=O)NCC(=O)N[C@@H](CO)C(=O)NCC(=O)N[C@@H](CO)C(=O)N1CCC[C@H]1C(N)=O)[C@@H](C)O)[C@@H](C)O)[C@@H](C)O
notes: also called Ex. #83
B2: [N-terminal(C20 diacid-gGlu), des1, 23Y, 30S, 31G, 34G, C-terminal(-)]mimylin (peptide)
peptide: {C20 diacid-γGlu}-ASELSTAALGRLSAELHELATYPRTETGSGSPG-OH
SMILES: CC(C)C[C@H](NC(=O)[C@H](C)NC(=O)[C@H](C)NC(=O)[C@@H](NC(=O)[C@H](CO)NC(=O)[C@H](CC(C)C)NC(=O)[C@H](CCC(=O)O)NC(=O)[C@H](CO)NC(=O)[C@H](C)NC(=O)CC[C@H](NC(=O)CCCCCCCCCCCCCCCCCCC(=O)O)C(=O)O)[C@@H](C)O)C(=O)NCC(=O)N[C@@H](CCCNC(=N)N)C(=O)N[C@@H](CC(C)C)C(=O)N[C@@H](CO)C(=O)N[C@@H](C)C(=O)N[C@@H](CCC(=O)O)C(=O)N[C@@H](CC(C)C)C(=O)N[C@@H](Cc1c[nH]cn1)C(=O)N[C@@H](CCC(=O)O)C(=O)N[C@@H](CC(C)C)C(=O)N[C@@H](C)C(=O)N[C@H](C(=O)N[C@@H](Cc1ccc(O)cc1)C(=O)N1CCC[C@H]1C(=O)N[C@@H](CCCNC(=N)N)C(=O)N[C@H](C(=O)N[C@@H](CCC(=O)O)C(=O)N[C@H](C(=O)NCC(=O)N[C@@H](CO)C(=O)NCC(=O)N[C@@H](CO)C(=O)N1CCC[C@H]1C(=O)NCC(=O)O)[C@@H](C)O)[C@@H](C)O)[C@@H](C)O
notes: also called Ex. #89
B3: [N-terminal(C20 diacid-gGlu), des1, 23Y, 30S, 31G, 34K, C-terminal(-)]mimylin (peptide)
peptide: {C20 diacid-γGlu}-ASELSTAALGRLSAELHELATYPRTETGSGSPK-OH
SMILES: CC(C)C[C@H](NC(=O)[C@H](C)NC(=O)[C@H](C)NC(=O)[C@@H](NC(=O)[C@H](CO)NC(=O)[C@H](CC(C)C)NC(=O)[C@H](CCC(=O)O)NC(=O)[C@H](CO)NC(=O)[C@H](C)NC(=O)CC[C@H](NC(=O)CCCCCCCCCCCCCCCCCCC(=O)O)C(=O)O)[C@@H](C)O)C(=O)NCC(=O)N[C@@H](CCCNC(=N)N)C(=O)N[C@@H](CC(C)C)C(=O)N[C@@H](CO)C(=O)N[C@@H](C)C(=O)N[C@@H](CCC(=O)O)C(=O)N[C@@H](CC(C)C)C(=O)N[C@@H](Cc1c[nH]cn1)C(=O)N[C@@H](CCC(=O)O)C(=O)N[C@@H](CC(C)C)C(=O)N[C@@H](C)C(=O)N[C@H](C(=O)N[C@@H](Cc1ccc(O)cc1)C(=O)N1CCC[C@H]1C(=O)N[C@@H](CCCNC(=N)N)C(=O)N[C@H](C(=O)N[C@@H](CCC(=O)O)C(=O)N[C@H](C(=O)NCC(=O)N[C@@H](CO)C(=O)NCC(=O)N[C@@H](CO)C(=O)N1CCC[C@H]1C(=O)N[C@@H](CCCCN)C(=O)O)[C@@H](C)O)[C@@H](C)O)[C@@H](C)O
notes: also called Ex. #90
B4: [N-terminal(C18 diacid-gGlu-2xOEG), des1, 4G, 9V, 15Q, 21Q, 23Y, 30S, 31G, 32T, 33Y]mimylin (peptide)
peptide: {C18 diacid-γGlu-AEEA-AEEA}-ASGLSTAVLGRLSQELHELQTYPRTETGSGTY-NH2
SMILES: CC(C)C[C@H](NC(=O)CNC(=O)[C@H](CO)NC(=O)[C@H](C)NC(=O)COCCOCCNC(=O)COCCOCCNC(=O)CC[C@H](NC(=O)CCCCCCCCCCCCCCCCC(=O)O)C(=O)O)C(=O)N[C@@H](CO)C(=O)N[C@H](C(=O)N[C@@H](C)C(=O)N[C@H](C(=O)N[C@@H](CC(C)C)C(=O)NCC(=O)N[C@@H](CCCNC(=N)N)C(=O)N[C@@H](CC(C)C)C(=O)N[C@@H](CO)C(=O)N[C@@H](CCC(N)=O)C(=O)N[C@@H](CCC(=O)O)C(=O)N[C@@H](CC(C)C)C(=O)N[C@@H](Cc1c[nH]cn1)C(=O)N[C@@H](CCC(=O)O)C(=O)N[C@@H](CC(C)C)C(=O)N[C@@H](CCC(N)=O)C(=O)N[C@H](C(=O)N[C@@H](Cc1ccc(O)cc1)C(=O)N1CCC[C@H]1C(=O)N[C@@H](CCCNC(=N)N)C(=O)N[C@H](C(=O)N[C@@H](CCC(=O)O)C(=O)N[C@H](C(=O)NCC(=O)N[C@@H](CO)C(=O)NCC(=O)N[C@H](C(=O)N[C@@H](Cc1ccc(O)cc1)C(N)=O)[C@@H](C)O)[C@@H](C)O)[C@@H](C)O)[C@@H](C)O)C(C)C)[C@@H](C)O
notes: also called Ex. #121
B5: [N-terminal(C20 diacid), des1, 4G, 15Q, 21Q, 23Y, 30S, 31G, 32T, 33Y]mimylin (peptide)
peptide: {C20 diacid}-ASGLSTAALGRLSQELHELQTYPRTETGSGTY-NH2
SMILES: CC(C)C[C@H](NC(=O)CNC(=O)[C@H](CO)NC(=O)[C@H](C)NC(=O)CCCCCCCCCCCCCCCCCCC(=O)O)C(=O)N[C@@H](CO)C(=O)N[C@H](C(=O)N[C@@H](C)C(=O)N[C@@H](C)C(=O)N[C@@H](CC(C)C)C(=O)NCC(=O)N[C@@H](CCCNC(=N)N)C(=O)N[C@@H](CC(C)C)C(=O)N[C@@H](CO)C(=O)N[C@@H](CCC(N)=O)C(=O)N[C@@H](CCC(=O)O)C(=O)N[C@@H](CC(C)C)C(=O)N[C@@H](Cc1c[nH]cn1)C(=O)N[C@@H](CCC(=O)O)C(=O)N[C@@H](CC(C)C)C(=O)N[C@@H](CCC(N)=O)C(=O)N[C@H](C(=O)N[C@@H](Cc1ccc(O)cc1)C(=O)N1CCC[C@H]1C(=O)N[C@@H](CCCNC(=N)N)C(=O)N[C@H](C(=O)N[C@@H](CCC(=O)O)C(=O)N[C@H](C(=O)NCC(=O)N[C@@H](CO)C(=O)NCC(=O)N[C@H](C(=O)N[C@@H](Cc1ccc(O)cc1)C(N)=O)[C@@H](C)O)[C@@H](C)O)[C@@H](C)O)[C@@H](C)O)[C@@H](C)O
B6: [N-terminal(C20 diacid-gGlu), des1, 2L, 4G, 9V, 21S, 23Y, 30S, 31G, 32T, 33Y]mimylin (peptide)
peptide: {C20 diacid-γGlu}-LSGLSTAVLGRLSAELHELSTYPRTETGSGTY-NH2
SMILES: CC(C)C[C@H](NC(=O)CC[C@H](NC(=O)CCCCCCCCCCCCCCCCCCC(=O)O)C(=O)O)C(=O)N[C@@H](CO)C(=O)NCC(=O)N[C@@H](CC(C)C)C(=O)N[C@@H](CO)C(=O)N[C@H](C(=O)N[C@@H](C)C(=O)N[C@H](C(=O)N[C@@H](CC(C)C)C(=O)NCC(=O)N[C@@H](CCCNC(=N)N)C(=O)N[C@@H](CC(C)C)C(=O)N[C@@H](CO)C(=O)N[C@@H](C)C(=O)N[C@@H](CCC(=O)O)C(=O)N[C@@H](CC(C)C)C(=O)N[C@@H](Cc1c[nH]cn1)C(=O)N[C@@H](CCC(=O)O)C(=O)N[C@@H](CC(C)C)C(=O)N[C@@H](CO)C(=O)N[C@H](C(=O)N[C@@H](Cc1ccc(O)cc1)C(=O)N1CCC[C@H]1C(=O)N[C@@H](CCCNC(=N)N)C(=O)N[C@H](C(=O)N[C@@H](CCC(=O)O)C(=O)N[C@H](C(=O)NCC(=O)N[C@@H](CO)C(=O)NCC(=O)N[C@H](C(=O)N[C@@H](Cc1ccc(O)cc1)C(N)=O)[C@@H](C)O)[C@@H](C)O)[C@@H](C)O)[C@@H](C)O)C(C)C)[C@@H](C)O
B7: [N-terminal(C20 diacid-gGlu), des1, 4G, 8L, 9V, 15Q, 21Q, 23Y, 30S, 31Q, 32T, 33Y]mimylin (peptide)
peptide: {C20 diacid-γGlu}-ASGLSTLVLGRLSQELHELQTYPRTETGSQTY-NH2
SMILES: CC(C)C[C@H](NC(=O)CNC(=O)[C@H](CO)NC(=O)[C@H](C)NC(=O)CC[C@H](NC(=O)CCCCCCCCCCCCCCCCCCC(=O)O)C(=O)O)C(=O)N[C@@H](CO)C(=O)N[C@H](C(=O)N[C@@H](CC(C)C)C(=O)N[C@H](C(=O)N[C@@H](CC(C)C)C(=O)NCC(=O)N[C@@H](CCCNC(=N)N)C(=O)N[C@@H](CC(C)C)C(=O)N[C@@H](CO)C(=O)N[C@@H](CCC(N)=O)C(=O)N[C@@H](CCC(=O)O)C(=O)N[C@@H](CC(C)C)C(=O)N[C@@H](Cc1c[nH]cn1)C(=O)N[C@@H](CCC(=O)O)C(=O)N[C@@H](CC(C)C)C(=O)N[C@@H](CCC(N)=O)C(=O)N[C@H](C(=O)N[C@@H](Cc1ccc(O)cc1)C(=O)N1CCC[C@H]1C(=O)N[C@@H](CCCNC(=N)N)C(=O)N[C@H](C(=O)N[C@@H](CCC(=O)O)C(=O)N[C@H](C(=O)NCC(=O)N[C@@H](CO)C(=O)N[C@@H](CCC(N)=O)C(=O)N[C@H](C(=O)N[C@@H](Cc1ccc(O)cc1)C(N)=O)[C@@H](C)O)[C@@H](C)O)[C@@H](C)O)[C@@H](C)O)C(C)C)[C@@H](C)O

Biological target: T1, human calcitonin receptor (human, UniProt P30988 25-474)
T1 construct: whole, on cells; also called hCT-R; hCTR
T1 sequence (looked up): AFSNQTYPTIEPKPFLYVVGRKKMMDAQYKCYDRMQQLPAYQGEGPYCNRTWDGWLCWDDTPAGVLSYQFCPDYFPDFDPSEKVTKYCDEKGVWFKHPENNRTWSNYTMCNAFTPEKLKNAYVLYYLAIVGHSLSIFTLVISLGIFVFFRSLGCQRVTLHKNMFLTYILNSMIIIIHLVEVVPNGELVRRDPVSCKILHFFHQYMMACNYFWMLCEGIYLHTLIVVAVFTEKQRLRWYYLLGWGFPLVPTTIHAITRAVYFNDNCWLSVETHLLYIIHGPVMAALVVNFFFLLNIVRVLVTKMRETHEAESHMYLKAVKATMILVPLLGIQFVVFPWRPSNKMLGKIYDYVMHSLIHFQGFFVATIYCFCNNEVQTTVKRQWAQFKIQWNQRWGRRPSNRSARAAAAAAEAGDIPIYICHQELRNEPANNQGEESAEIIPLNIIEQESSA
Assay: whole-cell competition vs 125I-human calcitonin (Assay VIIa)
Method in brief: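 BHK tk'ts 13 cells stably co-expressing human calcitonin receptor and a CRE-luciferase reporter, seeded overnight at 37 °C. Bound tracer counted by scintillation after cold HBSS washes and NaOH/SDS lysis; IC₅₀ from one-site competition fit taken as receptor affinity.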

Binder	IC50 [nM]
B1	1.57
B2	3.6
B3	6.84
B4	0.3
B5	0.747
B6	5.62
B7	1.83
